Laboratory results taken from US20080207488A1, “Method for Detecting Peptides Comprising a Cross-B Structure” (priority 2005, published 2008).
Entries after “also recorded” stand apart in the source; their conditions may differ.

Legend:
Congo red fluorescence = format: physicochemical; details: marketed biopharmaceutical within expiry limits, five μL tested
Protocol: Background signals from buffer, buffer with Congo red and protein/peptide solution without Congo red were subtracted from corresponding measurements with protein solution incubated with Congo red. Fluorescence was measured in triplicate on a Hitachi F-4500 fluorescence spectrophotometer (Ltd., Tokyo, Japan).
Formulated protein therapeutics were obtained from the local hospital pharmacy and were used as supplied by the manufacturers. […] Lyophilized therapeutics were dissolved according to the manufacturers recommendations. […] Other protein therapeutics were only kept at 4° C., and assayed for the presence of cross-β structure conformation at shown time points. Enhancement in fluorescence of ThT and Congo red was measured with all formulated protein therapeutics. For this purpose, proteins were diluted to the indicated concentrations. […] Zinc-insulin was diluted tenfold in the activation assay, GH was diluted to a final concentration of 500 μg ml^−1. Activation of factor XII and prekallikrein by the therapeutics was tested in the chromogenic factor XII assay (see above). […] After coating, plates were blocked with Blocking Reagent (Roche Diagnostics, Almere, The Netherlands).
Protein therapeutics were obtained from the local hospital pharmacy and analyzed within the expiry limits as stated by the manufacturers.

sRAGE = biological target: T1, sRAGE (Homo sapiens, UniProt Q15109); assay: Biacore surface plasmon resonance, binding to immobilized sRAGE; details: Hb-AGE 32, amyloid γ-globulins 62.5, albumin-AGE 3.9 μg ml^−1
T1 construct: comprises three domains spanning amino-acid residues 23-325; His-tag with thrombin cleavage site (N); made in house; host or cells: 293E cells (printed as '293E hamster embryonic kidney cells')
T1 sequence (Q15109 23-325): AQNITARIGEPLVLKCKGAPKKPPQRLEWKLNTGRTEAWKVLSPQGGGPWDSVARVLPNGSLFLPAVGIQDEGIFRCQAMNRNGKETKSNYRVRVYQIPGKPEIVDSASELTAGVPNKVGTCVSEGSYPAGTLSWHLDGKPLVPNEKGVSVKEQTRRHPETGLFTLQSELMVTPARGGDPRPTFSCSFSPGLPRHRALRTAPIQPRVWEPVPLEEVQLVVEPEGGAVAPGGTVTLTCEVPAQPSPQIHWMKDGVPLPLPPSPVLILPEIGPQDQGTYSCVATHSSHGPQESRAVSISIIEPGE
Description: The soluble extracellular part, of the receptor for AGE (sRAGE) was cloned, expressed and purified as follows (Q.-H. Zeng, Prof. P. Gros, Dept. of Crystal- & Structural Chemistry, Bijvoet Center for Biomolecular Research, Utrecht University, Utrecht, the Netherlands). Human cDNA of RAGE was purchased from RZPD (clone IRALp962E1737Q2, RZPD, Berlin, Germany). For PCRs, the gagatct[…] forward primer was used comprising a BglII site, and the gcggccgc[…] reverse primer with a NotI site. The soluble extracellular part of RAGE comprises three domains spanning amino-acid residues 23-325. The PCR product was cloned into a pTT3 vector, containing an amino-terminal His-tag and a thrombin cleavage site. The sRAGE was expressed in 293E hamster embryonic kidney cells at the ABC-protein expression facility (Utrecht University, Utrecht, the Netherlands). […]
Binding of cross-β structure conformation containing peptides/proteins was studied using surface plasmon resonance technology with a Biacore 2000 apparatus (Biacore AB, Uppsala, Sweden). […] Binding of albumin-AGE was determined with a solution of 3.9 μg ml^−1 albumin-AGE in running buffer. albumin-AGE was filtered on a Millex-GV 0.22 μm filter unit (Millipore). […] Binding of Hb-AGE was also tested after centrifugation for 10 min. at 16,000*g alternative to filtration. tPA activation before and after filtration was assessed with a Plg-activation assay. […]

[1] = system: human tissue-type plasminogen activator finger EGF (tPA F-EGF) fragment; assay: ELISA, binding of tPA F-EGF to coated (mis)folded proteins; details: coated protein, FIG. 7A, I; listed as BSA-AGE
human tissue-type plasminogen activator finger EGF (tPA F-EGF) fragment, sequence (P00750 39-120 limits assumed): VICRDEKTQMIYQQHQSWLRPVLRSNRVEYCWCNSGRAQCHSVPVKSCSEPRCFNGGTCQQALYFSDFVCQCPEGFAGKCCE
Protocol: (§1) The plates were blocked using Blocking reagent (Roche 1112589). A dilution series of the protein of interest was applied to the coated proteins and wells were subsequently washed using TBS-T (50 mM Tris pH 7.3, 150 mM NaCl and 0.1% Tween20). Bound protein is detected by the FLAG-tag using 1:3000 anti-FLAG-HRP (Sigma A-8592) in PBS-T, or by 1:1000 Ni-NTA-HRP (Qiagen 34530) in PBS-T. The HRP reaction Is performed using the TMB substrate (Biosource 4501103 or Tebu Bio 101TMB100-500), stopped using 10% H2SO4 and absorbance was measured at 450 nm.

human BiP = biological target: T2, human BiP (Homo sapiens, UniProt P11021); assay: ELISA, binding of BiP to coated (mis)folded proteins; details: coated protein
T2 construct: made in house; host or cells: HEK293E cells, transient transfection, protein purified from the medium
T2 sequence (P11021 19-654): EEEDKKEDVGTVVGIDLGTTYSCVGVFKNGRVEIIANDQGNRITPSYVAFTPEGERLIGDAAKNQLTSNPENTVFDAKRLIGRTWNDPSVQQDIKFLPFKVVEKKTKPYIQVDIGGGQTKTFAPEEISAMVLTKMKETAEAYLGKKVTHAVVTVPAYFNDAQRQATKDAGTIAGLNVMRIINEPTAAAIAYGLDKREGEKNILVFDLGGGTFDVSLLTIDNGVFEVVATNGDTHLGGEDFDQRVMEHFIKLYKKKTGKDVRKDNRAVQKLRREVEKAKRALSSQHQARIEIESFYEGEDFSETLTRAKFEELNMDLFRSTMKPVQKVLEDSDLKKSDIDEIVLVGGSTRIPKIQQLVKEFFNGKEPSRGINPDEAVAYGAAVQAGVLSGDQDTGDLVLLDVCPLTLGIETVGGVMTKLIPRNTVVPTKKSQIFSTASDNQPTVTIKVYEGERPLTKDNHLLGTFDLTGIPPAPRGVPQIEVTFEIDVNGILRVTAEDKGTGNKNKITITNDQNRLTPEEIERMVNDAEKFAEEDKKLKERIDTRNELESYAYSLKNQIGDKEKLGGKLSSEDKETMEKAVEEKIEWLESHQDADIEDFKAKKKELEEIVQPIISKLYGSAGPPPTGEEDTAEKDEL
Protocol: as §1

Row | Substance | Fluorescence (a.u. +/− SD) CR (Congo red fluorescence) | binding to immobilized sRAGE (sRAGE) | binding of tPA F-EGF [1] | binding of BiP (detection anti-FLAG-HRP) (human BiP) | binding of BiP (detection Ni-NTA-HRP) (human BiP; FIG. 7A)
1 | Abciximab: abciximab, an inhibitor of blood platelet aggregation (ReoPro, Centocor) | 25 +/− 1 a.u. |  |  |  | 
2 | albumin-AGE: advanced glycation end-product modified bovine serum albumin |  | bind | High binding affinities; also recorded: high affinity binding | high affinity | low affinity
